Substitutions are numbered along the chain they refer to. Names and notes keep the numbering of the source. One block for each binder: values may come before it.
Assays:
Cdc3_(Q81-A410) [1] = biological target: T1, Cdc3_(Q81-A410) (Saccharomyces cerevisiae, UniProt P32457 81-410); assay: crystal structure; coexpressed tetrameric complex loaded with GTP before crystallization; sitting-drop vapor diffusion, 20% PEG 5000, 300 mM ammoniumsulfate, 100 mM Bis-Tris pH 6.5, 20 °C; 3.24 Å, space group C 1 2 1, a tetramer in the asymmetric unit; conditions: both partners purified
T1 construct: Cdc3, septin of Saccharomyces cerevisiae, residues Q81-A410 (extensions removed); source: E. coli BL21DE3, coexpressed with the other subunits, purified (HisTrap IMAC, anion exchange, SEC)
T1 sequence (looked up): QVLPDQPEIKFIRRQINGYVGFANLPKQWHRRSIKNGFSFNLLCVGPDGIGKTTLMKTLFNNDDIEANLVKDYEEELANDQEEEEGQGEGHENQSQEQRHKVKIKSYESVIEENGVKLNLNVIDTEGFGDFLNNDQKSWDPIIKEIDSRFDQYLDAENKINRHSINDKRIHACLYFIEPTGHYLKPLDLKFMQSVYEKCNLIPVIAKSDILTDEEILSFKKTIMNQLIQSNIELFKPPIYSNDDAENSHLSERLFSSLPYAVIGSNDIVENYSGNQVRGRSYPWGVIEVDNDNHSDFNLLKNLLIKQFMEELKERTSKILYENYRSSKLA

Shs1_(G21-S339) = biological target: T2, Shs1_(G21-S339) (Saccharomyces cerevisiae, UniProt Q07657 21-339); assay: as above; conditions: both partners purified
T2 construct: Shs1, septin of Saccharomyces cerevisiae, residues G21-S339 (unstructured extensions removed); The complex was purified on a HisTrap column; source: E. coli BL21DE3, coexpressed with the other subunits, purified (HisTrap IMAC, anion exchange, SEC)
T2 sequence (looked up): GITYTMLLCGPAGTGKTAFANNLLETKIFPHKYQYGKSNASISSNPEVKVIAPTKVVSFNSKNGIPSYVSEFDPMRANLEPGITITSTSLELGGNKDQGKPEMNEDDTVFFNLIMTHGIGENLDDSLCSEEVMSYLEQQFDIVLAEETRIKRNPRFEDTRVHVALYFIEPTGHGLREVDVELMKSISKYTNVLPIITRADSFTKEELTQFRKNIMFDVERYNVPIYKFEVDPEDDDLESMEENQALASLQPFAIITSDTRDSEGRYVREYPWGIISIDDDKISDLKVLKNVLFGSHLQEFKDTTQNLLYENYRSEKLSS

[2] = biological target: the molecule itself; assay: SEC; analytical SEC of yeast septin complexes purified by IMAC and IEX; Superose 6, 25 mM Tris pH 8.0, 300 mM NaCl; elution compared with tetramer and octamer references
[3] = biological target: the molecule itself; assay: cross-linking; engineered cysteine pairs across the Cdc10-Cdc10 NC-interface; complexes expressed in E. coli T7-SHuffle Express, purified by IMAC in non-reducing buffers, SDS-PAGE with and without β-Mercaptoethanol, Western blot against the S-tag on Cdc10
Cdc3_(Q81-A410) [4] = biological target: T1, Cdc3_(Q81-A410); assay: SEC; analytical SEC of yeast septin complexes purified by IMAC and IEX; Superose 6, 25 mM Tris pH 8.0, 300 mM NaCl; elution compared with tetramer and octamer references; conditions: both partners purified

binding result (Cdc3_(Q81-A410) [1]): binds
binding result (Shs1_(G21-S339)): binds
B1: Cdc12_(M1-G314) (domain or fragment, Saccharomyces cerevisiae, UniProt P32468 1-314, looked up)
chain: MSAATATAAPVPPPVGISNLPNQRYKIVNEEGGTFTVMLCGESGLGKTTFINTLFQTVLKRADGQQHRQEPIRKTVEIDITRALLEEKHFELRVNVIDTPGFGDNVNNNKAWQPLVDFIDDQHDSYMRQEQQPYRTKKFDLRVHAVLYFIRPTGHGLKPIDIETMKRLSTRANLIPVIAKADTLTAQELQQFKSRIRQVIEAQEIRIFTPPLDADSKEDAKSGSNPDSAAVEHARQLIEAMPFAIVGSEKKFDNGQGTQVVARKYPWGLVEIENDSHCDFRKLRALLLRTYLLDLISTTQEMHYETYRRLRLEG
notes: Cdc12, septin of Saccharomyces cerevisiae, residues M1-G314 (C-terminal extension removed); source: E. coli BL21DE3, coexpressed with the other subunits, purified (HisTrap IMAC, anion exchange, SEC)

binding result (Cdc3_(Q81-A410) [1]): binds
B2: Cdc10_(G30-R322) (domain or fragment, Saccharomyces cerevisiae, UniProt P25342 30-322, looked up)
chain: GFQFNIMVVGQSGLGKSTLINTLFASHLIDSATGDDISALPVTKTTEMKISTHTLVEDRVRLNINVIDTPGFGDFIDNSKAWEPIVKYIKEQHSQYLRKELTAQRERFITDTRVHAILYFLQPNGKELSRLDVEALKRLTEIANVIPVIGKSDTLTLDERTEFRELIQNEFEKYNFKIYPYDSEELTDEELELNRSVRSIIPFAVVGSENEIEINGETFRGRKTRWSAINVEDINQCDFVYLREFLIRTHLQDLIETTSYIHYEGFRARQLIALKENANSRSSAHMSSNAIQR
notes: Cdc10, septin of Saccharomyces cerevisiae, residues G30-R322 (lacks the α0-helix); also called Cdc10 lacking the α0-helix; Cdc10 of the truncated tetramer; source: E. coli BL21DE3, coexpressed with the other subunits, purified (HisTrap IMAC, anion exchange, SEC)

B3: Cdc10_(L27A) (natural protein, Saccharomyces cerevisiae, UniProt P25342 1-322, looked up)
chain: MDPLSSVQPASYVGFDTITNQIEHRLAKKGFQFNIMVVGQSGLGKSTLINTLFASHLIDSATGDDISALPVTKTTEMKISTHTLVEDRVRLNINVIDTPGFGDFIDNSKAWEPIVKYIKEQHSQYLRKELTAQRERFITDTRVHAILYFLQPNGKELSRLDVEALKRLTEIANVIPVIGKSDTLTLDERTEFRELIQNEFEKYNFKIYPYDSEELTDEELELNRSVRSIIPFAVVGSENEIEINGETFRGRKTRWSAINVEDINQCDFVYLREFLIRTHLQDLIETTSYIHYEGFRARQLIALKENANSRSSAHMSSNAIQR
notes: Cdc10, septin of Saccharomyces cerevisiae, hydrophobic crest mutant (position 15 of the motif); Compared with the wildtype octamer; source: E. coli BL21DE3, co-expressed as septin complex, purified (IMAC, IEX)
binding result [2]: binds

B4: Cdc10 L26A in the disulfide bridge mutant A132C/L300C (natural protein, Saccharomyces cerevisiae, UniProt P25342 1-322, looked up)
chain: B3 chain with L26A, A27L, A132C, L300C
notes: Cdc10, septin of Saccharomyces cerevisiae, disulfide bridge mutant A132C/L300C with L26A; also called L26A (disulfide mutant); source: E. coli T7-SHuffle Express, co-expressed with the other full-length subunits, purified (IMAC, non-reducing buffers)
binding result [3]: binds

B5: Cdc10 Q21C/Q281C (disulfide bridge mutant) (natural protein, Saccharomyces cerevisiae, UniProt P25342 1-322, looked up)
chain: B3 chain with Q21C, A27L, Q281C
notes: source: E. coli T7-SHuffle Express, co-expressed with the other full-length subunits, purified (IMAC, non-reducing buffers)
binding result [3]: binds

binding result (Cdc3_(Q81-A410) [4]): binds
B6: Cdc10_(M1-R322) (natural protein, Saccharomyces cerevisiae, UniProt P25342 1-322, looked up)
chain: B3 chain with A27L
notes: Cdc10, septin of Saccharomyces cerevisiae, residues M1-R322; kept apart from m6 because it stood with truncated partner subunits; also called Cdc10 with the α0-helix added, in the otherwise truncated complex; source: E. coli BL21DE3, coexpressed with Shs1_(G21-S339), Cdc12_(M1-G314) and Cdc3_(Q81-A410), purified (IMAC, IEX)
binding result [2]: binds

B7: Cdc10, native, non-truncated (wild type) (natural protein, Saccharomyces cerevisiae, UniProt P25342 1-322, looked up)
chain: B3 chain with A27L
notes: Cdc10, septin of Saccharomyces cerevisiae, native, non-truncated; An S-tag is named on Cdc10 only for the Western blots of the disulfide mutants; also called Cdc10 of the untruncated octamer; source: E. coli BL21DE3, co-expressed with the other full-length subunits, purified (IMAC, IEX)
binding result [2]: binds

B8: Cdc10 L26A (natural protein, Saccharomyces cerevisiae, UniProt P25342 1-322, looked up)
chain: B3 chain with L26A, A27L
notes: Cdc10, septin of Saccharomyces cerevisiae, mutant of the non-conserved position 14 of the hydrophobic crest motif; Compared with the wildtype octamer; source: E. coli BL21DE3, co-expressed as septin complex, purified (IMAC, IEX)
binding result [2]: binds

B9: Cdc10 L27A in the disulfide bridge mutant A132C/L300C (natural protein, Saccharomyces cerevisiae, UniProt P25342 1-322, looked up)
chain: B3 chain with A132C, L300C
notes: Cdc10, septin of Saccharomyces cerevisiae, disulfide bridge mutant A132C/L300C with L27A; also called L27A (disulfide mutant); source: E. coli T7-SHuffle Express, co-expressed with the other full-length subunits, purified (IMAC, non-reducing buffers)
binding result [3]: binds

B10: Cdc10 A132C/L300C (disulfide bridge mutant) (natural protein, Saccharomyces cerevisiae, UniProt P25342 1-322, looked up)
chain: B3 chain with A27L, A132C, L300C
notes: also called Cdc10^A_(A132)-Cdc10^B_(L300); source: E. coli T7-SHuffle Express, co-expressed with the other full-length subunits, purified (IMAC, non-reducing buffers)
binding result [3]: binds

B11: Cdc10 T19C/E23C (disulfide bridge mutant) (natural protein, Saccharomyces cerevisiae, UniProt P25342 1-322, looked up)
chain: B3 chain with T19C, E23C, A27L
notes: Cdc10, septin of Saccharomyces cerevisiae, native, non-truncated, with two cysteines for a disulfide between the two α0-helices; also called T19C and E23C; source: E. coli T7-SHuffle Express, co-expressed with the other full-length subunits, purified (IMAC, non-reducing buffers)
binding result [3]: binds
